Here are results for three sequences from patent US6200577A, “Anti-herpesviral agents and assays therefor” (priority 1996, dated 2001).

Data set [1] is described as follows: Solubility of synthetic peptides in buffer. The data set is classed as physicochemical. The settings on record: for Solubility following purification: HPLC-purified peptides; for Solubility: peptides dissolved in 20 mM Tris-HCl, pH 8.0, 250 mM NaCl, unpurified preparations. As to the method: Synthesis and Purification of Oligopeptides. Peptides were synthesised by continuous flow Fmoc chemistry (Atherton and Sheppard, 1989; McLean et al., 1991) and, where stated in the text, were purified by preparative reverse-phase HPLC (Owsianka et al., 1993). The Mr values of peptides were determined by fast atom bombardment mass spectrometry (M-Scan) and corresponded to the predicted values. Peptides were dissolved in 20 mM Tris-HCl, pH 8.0, 250 mM NaCl and centrifuged at 11,500 g for 1 minute prior to use. […] Precipitates were removed by centrifugation before use.

Data set [2] concerns the target T1, VP16/VP22trunc interaction (Human herpesvirus 1, UniProt P06492).
T1 construct: Plasmid pETVP16 was used to express full-length VP16 under the control of the T7 RNA polymerase promoter; made in house; host or cells: E. coli BL21(DE3)
Description: Far Western analysis of peptides blocking VP16 binding to immobilised VP22trunc. Details: species or system HSV-1. The following applies: for Blocking of VP16 binding to immobilised VP22trunc (Far Western), crude peptides: strips pre-incubated with 1 mg of crude peptide, FIG. 7A; for Blocking of VP16 binding to immobilised VP22trunc (Far Western), repeat with purified peptides D and E: strips pre-incubated with 1 mg peptide, FIG. 7B. As to the method: FIG. 7 Far Western analysis of the ability of peptides to block the interaction between VP16 and immobilised VP22trunc. Purified VP22trunc was added to partially purified extract of VP16 and the sample run on a 12% polyacrylamide gel. Proteins were then transferred to nitrocellulose membrane and the blot was cut into strips, with each strip containing approximately 1 g of VP22trunc. In (A), strips were pre-incubated with 1 mg of each of the following peptides: lane 2, no peptide, lane 3, peptide C; lane 4, peptide D; lane 5, peptide E; lane 6, peptide F; lane 7, peptides D and E; lane 8, peptides C and F. In (B) strips were pre-incubated with 1 mg of each of the following peptides: lane 2, no peptide, lane 3, peptide C; lane 4, purified peptide D; lane 5, purified peptide E; lane 6, peptide F. 24 g of pure VP16 was then added to strips 2 to 8 in (A) and strips 2 to 6 in (B), followed by incubation with LP1 antibody (1:1000 dilution). As a control, portions of the blot were incubated with LP1 or the 9220 antibody at a dilution of 1:1000 (lane 1 for LP1 in A and B; lane 9 in A and lane 7 in B for 9220). The apparent molecular weights of VP16 (65 KDa) and the dimer (32 KDa) and monomer (16 KDa) forms of VP22trunc are shown.
(§1) Following electrophoresis, proteins were electrotransferred to either Hybond or ProBlott (Applied Biosystems) membrane and the membrane was incubated in renaturation buffer (50 mM Tris-HCl, pH 8.0, 150 mM NaCl, 10% glycerol, 1 mM DTT) at 4° C. for 5-6 hours.
(§2) For membranes probed with either VP16 or VP22trunc, blocking was performed overnight as described for Western blot analysis. Probing with epitope-tagged VP22 or VP16 was performed in 20 mM Tris-HCl, pH 8.0, 250 mM NaCl for 1.5 hours at ambient temperature. Excess probe was removed by washing 4 times (10 minutes per wash) in 20 mM Tris-HCl, pH8.0, 250 mM NaCl, followed by incubation with the appropriate antibody at a dilution of 1:1000 in TTBS/1% gelatin for 1.5-2 hours. Bound antibody was detected as described for Western blot analysis.
Based on the studies with soluble VP16 and VP22trunc presented above, only a restricted number of peptides were examined by Far Western analysis to identify those that may prevent binding of VP16. Thus, VP22trunc was added to a crude extract of bacterially expressed VP16 and the proteins were electrophoresed on a polyacrylamide gel followed by transfer to a membrane. […] Before the addition of VP16 the blot strips in lanes 3 to 8 were incubated with crude preparations of peptides C, D, E, or E' as well as mixtures of either 0 and E or C and F. When the blot strips were incubated with peptides C and F either singly or in combination, VP16 bindincg to VP22trunc was not prevented (FIG. 7A, lanes 3, 6 and 8).

The target of data set [3] is T2, VP16/full-length VP22 interaction (Human herpesvirus 1, UniProt P06492).
T2 construct: Plasmid pETVP16 was used to express full-length VP16 under the control of the T7 RNA polymerase promoter; made in house; host or cells: VP16: E. coli BL21(DE3); VP22: L-particles of recombinant virus vUL49ep grown in BHK cells
T2 sequence (P06492 whole entry): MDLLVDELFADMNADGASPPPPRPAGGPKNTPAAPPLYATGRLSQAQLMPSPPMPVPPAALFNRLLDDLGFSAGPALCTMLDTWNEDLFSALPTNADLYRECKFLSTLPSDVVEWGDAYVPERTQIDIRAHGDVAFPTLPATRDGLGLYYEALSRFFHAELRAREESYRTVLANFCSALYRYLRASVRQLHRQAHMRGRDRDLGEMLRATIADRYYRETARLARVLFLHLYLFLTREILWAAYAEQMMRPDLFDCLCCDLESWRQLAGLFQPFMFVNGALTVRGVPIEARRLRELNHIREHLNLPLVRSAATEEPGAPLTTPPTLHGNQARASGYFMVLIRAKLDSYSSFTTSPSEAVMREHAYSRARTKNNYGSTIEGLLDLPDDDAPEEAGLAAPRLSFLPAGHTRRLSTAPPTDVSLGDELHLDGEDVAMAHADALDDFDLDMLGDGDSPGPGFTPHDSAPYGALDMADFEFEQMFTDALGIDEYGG
The data set is described as follows: Far Western analysis of peptides blocking VP16 binding to full-length VP22 (vUL49ep L-particle extract). The following applies: strips pre-incubated with 1 mg peptide, FIG. 8. On the set-up: species or system HSV-1. As for the experimental part: FIG. 8 Blocking of the interaction between VP16 and full length VP22 by pure peptides D and E. A vUL49ep L-particle extract was run on a 10% polyacrylamide gel and the proteins transferred to a nitrocellulose membrane. The blot was cut into strips, with each strip containing the equivalent of approximately 3×10^9 L-particles. Strips were pre-incubated with 1 mg of each of the following peptides: lane 2, no peptide; lane 3, peptide C; lane 4, peptide D; lane 5, peptide E. 2 μg of pure VP16 was then added to each incubation and bound VP16 was detected by LP1 antibody. Two strips were incubated with either LPl (lane 1) or 9220 antibody (lane 6), each at a dilution of 1:1000. The apparent molecular weights of VP16 (65 KDa) and tagged VP22 (40 KDa) are shown.
as §1, §2
The results presented thus far have established that peptides D and E block the interaction between VP16 and VP22trunc. The inhibitory effect of the peptides was further tested to examine whether they were capable of blocking the interaction of VP16 with full-length VP22.

“Also recorded” adds a separate entry of the source.

T1 sequence (P06492 whole entry): as above

In the case of CAAVGRLAAMHARMAAVQLW [Peptide E], in data set [1], the Solubility following purification result is on record as “not 100% soluble” and the Solubility entry was “partly; also recorded: partially insoluble”. Besides, in data set [2], the “Blocking of VP16 binding to immobilised VP22trunc (Far Western), crude peptides” value (“Blocking of VP16 binding … crude peptides” for short) is reported as “loss of recognition of VP22trunc”; the “Blocking of VP16 binding to immobilised VP22trunc (Far Western), repeat with purified peptides D and E” value (from here on “Blocking … with purified peptides D and E”) is recorded as “able to block binding of VP16 to VP22trunc”. Also, the “Blocking of VP16 binding to full-length VP22 (Far Western)” value in data set [3] is listed as “completely blocks binding of VP16 to VP22”.
Take FSTAPPNPDAPWTPRVAGFN [Peptide C]: the Solubility result in data set [1] was “soluble”. Also, in data set [2], the “Blocking of VP16 binding … crude peptides” value is “not prevented”; the “Blocking … with purified peptides D and E” value is listed as “had no effect”. Moreover, the “Blocking of VP16 binding to full-length VP22 (Far Western)” value in data set [3] is recorded as “does not hinder the interaction”.
As for TPRVAGFNKRVFCAAVGRLA [Peptide D], in data set [1], the Solubility following purification entry is given as “not 100% soluble” and the Solubility result is on record as “partly; also recorded: partially insoluble”. Besides, in data set [2], the “Blocking of VP16 binding … crude peptides” value is given as “loss of recognition of VP22trunc”; the “Blocking … with purified peptides D and E” value is “able to block binding of VP16 to VP22trunc”. The “Blocking of VP16 binding to full-length VP22 (Far Western)” value in data set [3] is recorded as “completely blocks binding of VP16 to VP22”.
